Here are results for one protein from article PMC6279372 (The Journal of Cell Biology, 2018).

The series deals with the molecule itself. In words: nonreducing SDS-PAGE.

B1: His6-SipA^1-242 (domain or fragment)
chain: MVTSVRTQPPVIMPGMQTEIKTQATNLAANLSAVRESATATLSGEIKGPQLEDFPALIKQASLDALFKCGKDAEALKEVFTNSNNVAGKKAIMEFAGLFRSALNATSDSPEAKTLLMKVGAEYTAQIIKDGLKEKSAFGPWLPETKKAEAKLENLEKQLLDIIKNNTGGELSKLSTNLVMQEVMPYIASCIEHNFGCTLDPLTRSNLTHLVDKAAAKAVEALDMCHQKLTQEQGTSVGREAR
Take B1: the binding result was “binds”.
